# Experimental data published in patent publication US20190083585.
# Changes are numbered by the printed parent chain. Numbers in names are those of the source.
# T1: fluorescently quenched α-gliadin hexapeptide analogue QXL520-PQPQLP-K(5-FAM)-NH2
# T1 chain: PQPQLP
# T2: immunodominant α9-gliadin peptide QLQPFPQPQLPY
# T2 chain: QLQPFPQPQLPY
# T3: Suc-APQ-pNA
# T3 chain: APQ
# T4: Suc-APE-pNA
# T4 chain: APE
# T5: Suc-APR-pNA
# T5 chain: APR
# B1: Kumamolisin-As N291D, Q361D (protein)
# chain: AAPTAYTPLDVAQAYQFPEGLDGQGQCIAIIELGGGYDEASLAQYFASLGVPAPQVVSVSVDGASNQPTGDPSGPDGEVELDIEVAGALAPGAKFAVYFAPDTDAGFLDAITTAIHDPTLKPSVVSISWGGPEDSWTSAAIAAMNRAFLDAAALGVTVLAAAGDSGSTDGEDDGLYHVDFPAASPYVLACGGTRLVASGGRIAQETVWNDGPDGGATGGGVSRIFPLPAWQEHANVPPSANPGASSGRGVPDLAGNADPATGYEVVIDGEATVIGGTSAVAPLFAALVARINQKLGKAVGYLNPTLYQLPADVFHDITEGNNDIANRAQIYQAGPGWDPCTGLGSPIGVRLLQALLPSASQPQPGSTENLYFQSGALEHHHHHH
# B2: Kumamolisin-As D358N (protein)
# chain: B1 chain with D102N, D169N, D172Q
# B3: Kumamolisin-As N291D, D293A, D358N (protein)
# chain: B1 chain with D104A, D169N, D172Q
# B4: Kumamolisin-As N291D, D293A (protein)
# chain: B1 chain with D104A, D172Q
# B5: Kumamolisin-As N291D, G319S, S354N, D358G, Q361D, D368H (protein)
# chain: B1 chain with G130S, S165N, D169G, D179H
# B6: Kumamolisin-As G319S, D368S (protein)
# chain: B1 chain with D102N, G130S, D172Q, D179S
# B7: KumaMax™ (Kumamolisin-As V119D, S262K, N291D, D293T, G319S, D358G, D368H) (protein)
# chain: B1 chain with S73K, D104T, G130S, D169G, D172Q, D179H
# B8: Kumamolisin-As T292S, N291D, G319S, D358G, D368H (protein)
# chain: B1 chain with T103S, G130S, D169G, D172Q, D179H
# B9: Kumamolisin-As D293T, N291D, G319S, D358G, D368H (protein)
# chain: B1 chain with D104T, G130S, D169G, D172Q, D179H
# B10: Kumamolisin-As (wild type) (protein)
# chain: B1 chain with D102N, D172Q
# B11: Kumamolisin-As G319S, D358G, D368H (protein)
# chain: B1 chain with D102N, G130S, D169G, D172Q, D179H
# B12: Kumamolisin-As D358G (protein)
# chain: B1 chain with D102N, D169G, D172Q
# B13: Kumamolisin-As N291D, G319S, S354N, D358G, D368H (protein)
# chain: B1 chain with G130S, S165N, D169G, D172Q, D179H
# B14: Kumamolisin-As S262K, D293N, N291D, G319S, D358G, D368H (protein)
# chain: B1 chain with S73K, D104N, G130S, D169G, D172Q, D179H
# B15: Kumamolisin-As D293A (protein)
# chain: B1 chain with D102N, D104A, D172Q
# B16: Kumamolisin-As N291D, G319S, D358G, Q361D, D368H (protein)
# chain: B1 chain with G130S, D169G, D179H
# B17: Kumamolisin-As N291D, D293A, D358G, Q361D (protein)
# chain: B1 chain with D104A, D169G
# B18: Kumamolisin-As N291D (protein)
# chain: B1 chain with D172Q
# B19: Kumamolisin-As T357A (protein)
# chain: B1 chain with D102N, T168A, D172Q
# B20: Kumamolisin-As N291D, D358N (protein)
# chain: B1 chain with D169N, D172Q
# B21: Kumamolisin-As N291D, D293A, G319S, D358G, Q361D, D368H (protein)
# chain: B1 chain with D104A, G130S, D169G, D179H
# B22: Kumamolisin-As G319S, S354N, D358G, D368H (protein)
# chain: B1 chain with D102N, G130S, S165N, D169G, D172Q, D179H
# B23: Kumamolisin-As N291D, D293A, G319S, S354N, D358G, Q361D, D368H (protein)
# chain: B1 chain with D104A, G130S, S165N, D169G, D179H
# B24: Kumamolisin-As N291D, Q361D, D358G (protein)
# chain: B1 chain with D169G
# B25: Kumamolisin-As N291D, D293A, Q361D, D358N (protein)
# chain: B1 chain with D104A, D169N
# B26: Kumamolisin-As N291D, G319S, D358G, D368H (protein)
# chain: B1 chain with G130S, D169G, D172Q, D179H
# B27: Kumamolisin-As S262G, T292S, N291D, G319S, D358G, D368H (protein)
# chain: B1 chain with S73G, T103S, G130S, D169G, D172Q, D179H
# B28: Kumamolisin-As D358G, D368H (protein)
# chain: B1 chain with D102N, D169G, D172Q, D179H
# B29: Kumamolisin-As S354N, D358G, D368H (protein)
# chain: B1 chain with D102N, S165N, D169G, D172Q, D179H
# How the values were obtained:
# [1] = biological target: T1, fluorescently quenched α-gliadin …
# [2] = biological target: T2, immunodominant α9-gliadin peptide …
# Suc-APQ-pNA = biological target: T3, Suc-APQ-pNA
# Suc-APE-pNA = biological target: T4, Suc-APE-pNA
# Suc-APR-pNA = biological target: T5, Suc-APR-pNA
Protein,Fold Change in Activity of PQ Hydrolysis Relative to Wild Type Kumamolysin-As [1] [fold],also measured
B1,7.5,–
B2,4,–
B3,24,–
B4,15,–
B5,50,–
B6,2,–
B7,120,"fraction of immunogenic peptide proteolyzed after 50 minutes (LC-MS, pH 4, 37° C.) [2]: over 95% of the immunogenic peptide had been proteolyzed after a 50 minute incubation; half-life of the peptide in the presence of KumaMax [2]: 8.5 ± 0.7 min; Catalytic Efficiency (kcat/KM) [1]: 568 M⁻¹ s⁻¹; Catalytic Efficiency (kcat/KM) (Suc-APQ-pNA): 6.7 M⁻¹ s⁻¹; Catalytic Efficiency (kcat/KM) (Suc-APE-pNA): 1.4 M⁻¹ s⁻¹; fold decrease in activity compared to its activity on the PQ substrate (Suc-APE-pNA): roughly 5-fold decrease in activity on the PE peptide substrate compared to its activity on the PQ substrate"
B8,49,–
B9,58,–
B10,1,Catalytic Efficiency (kcat/KM) [1]: 4.9 M⁻¹ s⁻¹; Catalytic Efficiency (kcat/KM) (Suc-APE-pNA): 4 M⁻¹ s⁻¹; Catalytic Efficiency (kcat/KM) (Suc-APR-pNA): 132 M⁻¹ s⁻¹
B11,7,–
B12,3,–
B13,54.6,–
B14,62,–
B15,3,–
B16,23.1,–
B17,15,–
B18,10,–
B19,2,–
B20,18.9,–
B21,40.9,–
B22,5,–
B23,58,–
B24,20,–
B25,14.8,–
B26,93,–
B27,29,–
B28,6,–
B29,9,–
